{"source": "paper PMC7305465", "about": "“A Cardiac Troponin T Biosensor Based on Aptamer Self-assembling on Gold”", "binders": {"B1": {"name": "TnT aptamer (structured_DNA)", "DNA": "CGTGCAGTACGCCAACCTTTCTCATGCGCTGCCCCTCTTA", "modifications": "5'-SH-(CH2)6 thiol"}}, "biological_target": "cardiac troponin T (TnT) (human, UniProt P45379 2-298)", "assay": "electrochemical aptasensor (DPV, ferro/ferricyanide); 0.05-5 ng/mL TnT; LOD 0.01 ng/mL; aptamer on gold; TnT binding at 37 C, ~30 min, working pH 7.4; aptamer immobilized from 10 mM phosphate, 5 mM NaCl, 2 mM KCl, 1 mM MgCl2, pH 7.4; DPV in 20 mM Tris-HCl, 0.5 M KCl, 0.5 M ferro/ferricyanide", "conditions": "protein: commercial", "data": [{"binder": "B1", "values": [{"measurement": "binding result", "value": "binds"}]}]}
